Results as given in patent US20250084169A1 (published 2025).

Tests used:
[1] = biological target: recombinant human Fc gamma RIIIa (CD16a) 158F (human, UniProt P08637 17-208)
[2] = biological target: T1, recombinant human Fc gamma RIIb/c (CD32b/c) (human, UniProt P31994 46-217)
T1 sequence (looked up): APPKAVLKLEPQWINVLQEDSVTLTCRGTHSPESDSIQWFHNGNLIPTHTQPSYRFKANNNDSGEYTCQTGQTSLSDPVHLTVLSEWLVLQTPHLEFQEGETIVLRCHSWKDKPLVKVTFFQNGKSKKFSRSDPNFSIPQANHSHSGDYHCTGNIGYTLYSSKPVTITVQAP

[3] = biological target: recombinant human Fc gamma RIIIa (CD16a) 158V (human, UniProt P08637 17-208)
Chain of recombinant human Fc gamma RIIIa (CD16a) 158V (P08637 17-208 F176V limits assumed): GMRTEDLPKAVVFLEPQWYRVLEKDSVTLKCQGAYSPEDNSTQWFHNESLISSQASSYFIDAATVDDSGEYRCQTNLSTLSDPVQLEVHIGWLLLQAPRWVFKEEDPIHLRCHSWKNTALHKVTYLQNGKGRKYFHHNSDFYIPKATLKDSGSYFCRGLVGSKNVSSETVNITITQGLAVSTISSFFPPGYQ

[4] = biological target: T2, recombinant human Fc gamma RIIa (CD32a) 131R (human, UniProt P12318 36-218)
T2 sequence (looked up): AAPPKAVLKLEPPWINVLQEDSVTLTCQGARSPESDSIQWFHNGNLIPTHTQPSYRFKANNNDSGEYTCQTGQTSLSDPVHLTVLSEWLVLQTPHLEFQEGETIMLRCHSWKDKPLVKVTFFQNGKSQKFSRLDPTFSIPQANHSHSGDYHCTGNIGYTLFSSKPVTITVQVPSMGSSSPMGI

[5] = biological target: recombinant human Fc gamma RIIIb (CD16b) (human, UniProt O75015 17-200)
Chain of recombinant human Fc gamma RIIIb (CD16b) (O75015 17-200 limits assumed): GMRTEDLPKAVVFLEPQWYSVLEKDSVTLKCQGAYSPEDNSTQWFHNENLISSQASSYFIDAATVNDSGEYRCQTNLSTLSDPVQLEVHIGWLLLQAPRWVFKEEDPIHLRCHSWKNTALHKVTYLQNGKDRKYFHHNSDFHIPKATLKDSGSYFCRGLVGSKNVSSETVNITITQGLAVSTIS

[6] = biological target: T3, recombinant human Fc gamma RIIa (CD32a) 131H (human, UniProt P12318 36-218)
T3 sequence (looked up): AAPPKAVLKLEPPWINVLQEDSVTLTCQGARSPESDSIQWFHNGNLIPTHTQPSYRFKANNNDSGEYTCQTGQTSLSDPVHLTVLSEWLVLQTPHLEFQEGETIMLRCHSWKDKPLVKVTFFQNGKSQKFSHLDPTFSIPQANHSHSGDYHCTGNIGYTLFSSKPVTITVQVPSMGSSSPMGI

[7] = biological target: recombinant human Fc gamma RI (CD64) (human, UniProt P12314 16-288)
Chain of recombinant human Fc gamma RI (CD64) (P12314 16-288 limits assumed): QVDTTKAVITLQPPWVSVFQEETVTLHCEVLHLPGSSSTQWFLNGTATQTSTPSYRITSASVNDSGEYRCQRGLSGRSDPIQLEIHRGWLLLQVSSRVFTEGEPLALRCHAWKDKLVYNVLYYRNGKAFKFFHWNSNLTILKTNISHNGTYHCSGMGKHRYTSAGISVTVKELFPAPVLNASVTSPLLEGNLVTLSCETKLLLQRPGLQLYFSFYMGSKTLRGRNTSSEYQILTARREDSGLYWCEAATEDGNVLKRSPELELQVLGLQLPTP

CD20 Lipoparticles = biological target: T4, CD20 Lipoparticles (Homo sapiens (Human), UniProt P11836 1-297)
T4 sequence: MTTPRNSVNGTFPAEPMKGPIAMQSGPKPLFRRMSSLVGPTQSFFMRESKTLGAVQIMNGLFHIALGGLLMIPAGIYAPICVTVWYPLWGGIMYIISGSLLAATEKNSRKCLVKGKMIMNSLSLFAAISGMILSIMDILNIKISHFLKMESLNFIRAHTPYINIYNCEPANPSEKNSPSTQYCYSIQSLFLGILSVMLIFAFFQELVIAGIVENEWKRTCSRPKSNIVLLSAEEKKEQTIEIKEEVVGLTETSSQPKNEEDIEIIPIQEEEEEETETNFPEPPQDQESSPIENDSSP

Chain of recombinant human Fc gamma RIIIa (CD16a) 158F (P08637 17-208 limits assumed): as the sequence (P08637 17-208 F176V limits assumed) above, with V160F counted along it

B1: Rc66SIDE-P28-Rc66SIDE (antibody, human IgG1, kappa)
light: QIVLSQSPAILSASPGEKVTMTCRASSSVSYIHWFQQKPGSSPKPWIYATSNLASGVPVRFSGSGSGTSYSLTISRVEAEDAATYYCQQWTSNPPTFGGGTKLEIKRTVAAPSVFIFPPSDEQLKSGTASVVCLLNNFYPREAKVQWKVDNALQSGNSQESVTEQDSKDSTYSLSSTLTLSKADYEKHKVYACEVTHQGLSSPVTKSFNRGEC
heavy: QVQLQQPGAELVKPGASVKMSCKASGYTFTSYNMHWVKQTPGRGLEWIGAIYPGNGDTSYNQKFKGKATLTADKSSSTAYMQLSSLTSEDSAVYYCARSTYYGGDWYFNVWGAGTTVTVSAASTKGPSVFPLAPSSKSTSGGTAALGCLVKDYFPEPVTVSWNSGALTSGVHTFPAVLQSSGLYSLSSVVTVPSSSLGTQTYICNVNHKPSNTKVDKKAEPKSCDKTHTCPPCPAPELLGGPDVFLFPPKPKDTLMISRTPEVTCVVVDVSHEDPEVKFNWYVDGVEVHNAKTKPREEQYNSTYRVVSVLTVLHQDWLNGKEYKCKVSNKALPAPEEKTISKAKGQPREPQVYVLPPSRDELTKNQVSLLCLVKGFYPSDIAVEWESNGQPENNYLTWPPVLDSDGSFFLYSKLTVDKSRWQQGNVFSCSVMHEALHNHYTQKSLSLSPGK
chain: CPPCPAPELLGGPDVFLFPPKPKDTLMISRTPEVTCVVVDVSHEDPEVKFNWYVDGVEVHNAKTKPREEQYNSTYRVVSVLTVLHQDWLNGKEYKCKVSNKALPAPEEKTISKAKGQPREPQVYVYPPSRDELTKNQVSLTCLVKGFYPSDIAVEWESNGQPENNYKTTPPVLDSDGSFALVSKLTVDKSRWQQGNVFSCSVMHEALHNHYTQKSLSLSPGK
Kd [1]: 6.62 nM
Kd [2]: 7.28 nM
Kd [3]: 4.98 nM
Kd [4]: 8.11 nM
Kd [5]: 5.64 nM
Kd [6]: 5.42 nM
Kd [7]: 1.14 nM
Kd (CD20 Lipoparticles): < 0.001 nM
